Substitutions are numbered along the chain they refer to. Numbers in names are those of the source.

What is called Kd is a measure of binding affinity in units of concentration. Read a high Kd as weaker binding. The kon is a measure of how fast the partners come together. A lower kon goes with slower complex formation. In general, koff refers to a measure of how fast the partners let go of each other.

To fix the notation:
B1: Antibody 76 (antibody, human IgG1, kappa, V domains shown)
VH: EVQLVQSGAEVKKPGATVKISCKVSGYTFTDYYLHWVQQAPGKGLEWMGWIDPENGDTEYAPKFQGRVTITADTSTDTAYMELSSLRSEDTAVYYCNANKELRYFDVWGQGTMVTVSS
VL: EIVLTQSPATLSLSPGERATLSCRASQSISINLHWYQQKPGQAPRLLIYFASQSISGIPARFSGSGSGTDFTLTISSLEPEDFAVYYCQQSNSFPLTFGGGTKVEIKR
B2: Antibody 77 (antibody, human IgG1, kappa, V domains shown)
VH: QVQLVQSGAEVKKPGASVKVSCKASGYTFTDYYLHWVRQAPGQGLEWMGWIDPENGDTEYAPKFQGRVTMTTDTSTSTAYMELRSLRSDDTAVYYCNANKELRYFDVWGQGTMVTVSS
VL: B1 VL
B3: scFv combo. # 2 (scFv)
scFv: QVQLVQSGAEVKKPGASVKVSCKASGYAFTDYYLHWVRQAPGQGLEWMGWIDPENGDTESAPKFQGRVTMTTDTSTSTAYMELRSLRSDDTAVYYCNANKELRYFDVWGQGTMVTVSSGGGGSGGGGSGGGGSEIVMTQSPATLSVSPGERATLSCRASQSISINLHWYQQKPGQAPRLLIYFASQSISGIPARFSGSGSGTEFTLTISSLQSEDFAVYYCQQSNSFPLTFGGGTKVEIKR
notes: scFv-80 with VH T28A, Y59S; not shown: proprietary C-terminal FLAG tag
B4: scFv combo. # 6 (scFv)
scFv: B3 scFv with S60H, T69S
notes: scFv-80 with VH T28A, Y59H, T68S; not shown: proprietary C-terminal FLAG tag
B5: scFv combo. # 8 (scFv)
scFv: B3 scFv with A28T, F29L
notes: scFv-80 with VH F29L, Y59S; not shown: proprietary C-terminal FLAG tag
B6: scFv combo. # 7 (scFv)
scFv: B3 scFv with A28T, F29L, S60H
notes: scFv-80 with VH F29L, Y59H; not shown: proprietary C-terminal FLAG tag
B7: scFv combo. # 9 (scFv)
scFv: B3 scFv with A28T, Q43R, I188T
notes: scFv-80 with VH Q43R, Y59S; VL I55T; not shown: proprietary C-terminal FLAG tag
B8: scFv combo. # 12 (scFv)
scFv: B3 scFv with T69S
notes: scFv-80 with VH T28A, Y59S, T68S; not shown: proprietary C-terminal FLAG tag
B9: scFv combo. # 10 (scFv)
scFv: B3 scFv with S60H
notes: scFv-80 with VH T28A, Y59H; not shown: proprietary C-terminal FLAG tag
B10: scFv combo. # 11 (scFv)
scFv: B3 scFv with A28T, S159P
notes: scFv-80 with VH Y59S; VL S26P; not shown: proprietary C-terminal FLAG tag
B11: Antibody 52 (antibody, human IgG1, kappa, V domains shown)
VH: B1 VH with V24A, T30S, Q38R, A40R, A79G, M81L, N97A, M113L
VL: DIQMTQSPSSVSASVGDRVTITCRASQSISINLHWYQQKPGKAPKLLIYFASQSISGVPSRFSGSGSGTDFSLTINSLQPEDFATYYCQQSNSFPLTFGGGTKVEIKR
B12: Antibody 57 (antibody, human IgG1, kappa, V domains shown)
VH: B1 VH with V24A, T30S, Q38R, A40R, A79G, M81L, N97A, M113L
VL: B11 VL with Y49K
B13: Antibody 59 (antibody, human IgG1, kappa, V domains shown)
VH: B1 VH with V24A, T30S, Q38R, R67K, A79G, M81L, N97A, M113L
VL: B11 VL with Y49K
B14: Antibody 54 (antibody, human IgG1, kappa, V domains shown)
VH: B1 VH with V24A, T30S, Q38R, R67K, A79G, M81L, N97A, M113L
VL: B11 VL
B15: Antibody 55 (antibody, human IgG1, kappa, V domains shown)
VH: B1 VH with V24A, T30S, Q38R, A40R, G42E, R67K, A79G, M81L, N97A, M113L
VL: B11 VL
B16: Antibody 58 (antibody, human IgG1, kappa, V domains shown)
VH: B1 VH with V24A, T30S, Q38R, G42E, A79G, M81L, N97A, M113L
VL: B11 VL with Y49K
B17: Antibody 51 (antibody, human IgG1, kappa, V domains shown)
VH: B1 VH with V24A, T30S, Q38R, A79G, M81L, N97A, M113L
VL: B11 VL
B18: Antibody 56 (antibody, human IgG1, kappa, V domains shown)
VH: B1 VH with V24A, T30S, Q38R, A79G, M81L, N97A, M113L
VL: B11 VL with Y49K
B19: Antibody 207 (antibody, human IgG1, kappa, V domains shown)
VH: B2 VH with Y60S
VL: B1 VL with L4M, L13V, D70E, E79Q, P80S
notes: also called AW-F2 as IgG
B20: Antibody 184 (antibody, human IgG1, kappa, V domains shown)
VH: B2 VH with Y60H
VL: B1 VL with L4M, L13V, D70E, E79Q, P80S
notes: also called CP-A6 as IgG

The target in the first test is T1, human IL-12 (human, UniProt P29460 23-328; P29459 23-219).
T1 construct: Recombinant (Peprotech); FLAG-tagged IL-12 in the flow cytometry assays, biotinylated in the IL-12Rβ2 assay; also called hIL-12
T1 sequence 1: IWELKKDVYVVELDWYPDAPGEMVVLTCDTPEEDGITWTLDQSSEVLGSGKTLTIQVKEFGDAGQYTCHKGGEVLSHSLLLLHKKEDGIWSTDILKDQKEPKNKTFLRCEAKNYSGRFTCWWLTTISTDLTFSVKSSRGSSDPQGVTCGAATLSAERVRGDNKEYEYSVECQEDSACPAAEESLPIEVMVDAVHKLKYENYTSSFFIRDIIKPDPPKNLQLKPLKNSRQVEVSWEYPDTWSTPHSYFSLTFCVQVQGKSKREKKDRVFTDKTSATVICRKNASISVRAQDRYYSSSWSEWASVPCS
T1 sequence 2: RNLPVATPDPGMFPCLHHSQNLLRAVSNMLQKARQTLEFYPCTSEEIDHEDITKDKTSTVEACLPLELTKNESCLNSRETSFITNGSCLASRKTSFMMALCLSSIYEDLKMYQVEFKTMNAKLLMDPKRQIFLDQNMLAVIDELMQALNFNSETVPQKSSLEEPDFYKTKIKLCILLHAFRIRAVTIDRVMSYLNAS
In words: ELISA, coated IL-12. In a few lines: (§1)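 Each value is an absorbance measuring binding. Plates (Maxisorp) carried cytokine coated at 1 μg/mL in carbonate buffer pH 9.6 overnight at 4° C, were blocked with 1% BSA in PBS for 1 hour at 25° C, and received antibody titrations for 1 hour at 25° C. Detection used goat anti-human IgG or anti-murine immunoglobulin HRP at 1:2000 for 1 hour, then TMB stopped with 1M HCl, with absorbance taken at 450 nm (reference 620 nm).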
Regarding B1, the binding result is “binds”.

Turning to B2, the binding result was “binds”.

The next test deals with T2, human IL-23 (human, UniProt P29460 23-328; Q9NPF7 20-189).
T2 construct: Recombinant (Ebioscience); HIS-tagged in flow cytometry, biotinylated in some assays; also called hIL-23; rhIL-23
T2 sequence 1: T1 sequence 1
T2 sequence 2: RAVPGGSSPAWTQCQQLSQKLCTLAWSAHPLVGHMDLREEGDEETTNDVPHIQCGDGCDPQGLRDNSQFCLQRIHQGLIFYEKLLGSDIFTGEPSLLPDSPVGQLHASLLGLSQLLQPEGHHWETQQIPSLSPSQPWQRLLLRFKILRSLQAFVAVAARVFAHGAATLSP
In words: SPR, single 81 nM analyte, scFv via FLAG.
B3 showed a Kd not above 0.034 nM and a kon of 230000 M⁻¹ s⁻¹.

B4: the Kd was not above 0.041 nM and the kon came to 230000 M⁻¹ s⁻¹.

B5 yielded a Kd not above 0.0075 nM and a kon of 200000 M⁻¹ s⁻¹.

The molecule B6 had a Kd not above 0.0033 nM and a kon of 200000 M⁻¹ s⁻¹.

B7: the Kd was not above 0.027 nM and the on-rate constant (kon) is 220000 M⁻¹ s⁻¹.

As for B8, the Kd is not above 0.016 nM and the kon was determined as 220000 M⁻¹ s⁻¹.

For the molecule B9, the Kd is not above 0.013 nM and the kon is 220000 M⁻¹ s⁻¹.

As for B10, the dissociation constant (Kd) was not above 0.027 nM and the kon was determined as 220000 M⁻¹ s⁻¹.

A further test deals with T2, human IL-23. Briefly: ELISA, coated IL-23. In a few lines:
as §1
In general terms: In an ELISA, binding on a coated surface is turned into a signal by an enzyme label.
B1: the binding result is “binds”.

In the case of B2, the binding result is on record as “binds”.

The next test has as its target T2, human IL-23. In words: SPR, single 81 nM analyte, scFv via FLAG; LOD about 1 × 10^-5 s^-1. A general note: SPR reads the build-up and loss of mass on a sensor chip optically.
Consider B3, for which the koff is less than 1e-05 s⁻¹.

Consider B4, for which the koff was less than 1e-05 s⁻¹.

B5 returned a koff of less than 1e-05 s⁻¹.

B6 had a dissociation rate constant (koff) of less than 1e-05 s⁻¹.

Regarding B7, the koff was less than 1e-05 s⁻¹.

Molecule B8 displayed a koff of less than 1e-05 s⁻¹.

On to B9, for which the koff is less than 1e-05 s⁻¹.

The molecule B10 had a koff of less than 1e-05 s⁻¹.

The next test deals with T1, human IL-12. In words: ELISA, coated IL-12. This is another data set of the same source. The procedure, abridged:
as §1
As to B11, the binding result was “binds”.

Regarding B12, the binding result was “binds”.

As to B13, the binding result is on record as “binds”.

With B14, the binding result was “binds”.

Consider B15, for which the binding result is given as “binds”.

For the molecule B16, the binding result was “binds”.

Take B17: the binding result is reported as “binds”.

B18: the binding result was “binds”.

The target of another test is T2, human IL-23. In words: ELISA, coated IL-23. The source holds these as a separate data set. The procedure, abridged: as §1
For B11, the binding result is “binds”.

In the case of B12, the binding result was “binds”.

Turning to B13, the binding result is given as “binds”.

As for B14, the binding result is given as “binds”.

For B15, the binding result was “binds”.

For the molecule B16, the binding result is “binds”.

Consider B17, for which the binding result is on record as “binds”.

B18: the binding result is recorded as “binds”.

The next test has as its target T2, human IL-23. Briefly: SPR, IgG. On the procedure:
(§2) CU-A6 was converted to Antibody 183, CP-A6 was converted to Antibody 184 and AW-F2 was converted to Antibody 207 by addition of a human heavy chain Fc region (SEQ ID NO: 8) and a constant kappa light chain region (SEQ ID NO: 9). IgG molecules were expressed by co-transfecting the heavy and light chain construct for each antibody into HEK 293E cultures. The expressed IgGs were purified by affinity chromatography and gel exclusion and the resulting monomeric molecules were tested for IL-12 and IL-23 binding by SPR (TABLE 6). All three IgG variants retained binding activity against both analytes with a visible improvement in kd compared to the parental wild-type IgG. Based on this, it is reasonable to expect that scFv variants described in TABLE 4 could be converted to the IgG format and retain improved binding characteristics against IL-12 and IL-23.
(§3) Using a SPR 3000, Protein A was immobilized onto FC1 and FC2 (or alternatively FC3 and FC4) of a CM5 research grade sensor chip using amine coupling, giving approximately […] RU. FC1 was used a blank throughout the experiments. The experiments were run in HBS-P buffer (SPR). At a flow rate of 20 μl/min, 20 μl of 5 μg/mL of antibody was passed over FC2. IL-12, IL-23 or IL-12p40 (Peprotech) were passed over the surface of FC1 and FC2 at concentrations ranging from 66 nM to 2 nM. Regeneration of the surface was performed using 10 mM Glycine, pH 1.0. The sensorgram data from FC2 was subtracted from FC1 and a buffer only control. The curves were fitted using a 1:1 Langmuir equation to generate the kd, ka and KD values. All curves were fitted with a χ² of less then 2.0 where possible.
B19: the Kd stood at 0.176 nM, the koff worked out at 6.5e-05 s⁻¹ and the kon came to 370000 M⁻¹ s⁻¹.

As for B20, the Kd worked out at 0.104 nM, the koff was 4.2e-05 s⁻¹ and the kon was determined as 410000 M⁻¹ s⁻¹.

The next test deals with T1, human IL-12. In words: SPR, IgG. How it is done:
as §2, §3
As for B19, the affinity, expressed as Kd, was 0.167 nM; the koff is 0.00063 s⁻¹; the kon came to 3.7e+06 M⁻¹ s⁻¹.

For the molecule B20, the Kd was found to be 0.127 nM, the koff came to 0.00054 s⁻¹ and the kon is 4.2e+06 M⁻¹ s⁻¹.

The record behind these values is patent publication US20110262445A1 (CEPHALON AUSTRALIA, published 2011).
